Patent publication US20240425609A1

Legend:
human CD22 (human) = human CD22 (human) (UniProt P20273); assay: cell-based or functional assay
human CD3 (human) = assay: cell-based or functional assay
mouse PD1 (mouse) = mouse PD1 (mouse) (UniProt Q02242); assay: cell-based or functional assay
mouse CD20 (mouse) = mouse CD20 (mouse) (UniProt P19437); assay: flow cytometry on MC38/mCD20 cells
Sequence of mouse CD20 (mouse) (P19437 whole entry): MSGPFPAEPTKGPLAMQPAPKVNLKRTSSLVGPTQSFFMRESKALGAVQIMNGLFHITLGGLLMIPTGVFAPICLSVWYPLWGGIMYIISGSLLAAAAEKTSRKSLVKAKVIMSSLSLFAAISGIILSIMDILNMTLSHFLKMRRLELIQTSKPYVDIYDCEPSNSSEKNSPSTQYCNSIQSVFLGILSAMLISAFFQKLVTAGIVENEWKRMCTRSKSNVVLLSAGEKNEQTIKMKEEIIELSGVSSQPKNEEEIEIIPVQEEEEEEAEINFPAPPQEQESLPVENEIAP

Sequence of human CD22 (human) (P20273 20-847): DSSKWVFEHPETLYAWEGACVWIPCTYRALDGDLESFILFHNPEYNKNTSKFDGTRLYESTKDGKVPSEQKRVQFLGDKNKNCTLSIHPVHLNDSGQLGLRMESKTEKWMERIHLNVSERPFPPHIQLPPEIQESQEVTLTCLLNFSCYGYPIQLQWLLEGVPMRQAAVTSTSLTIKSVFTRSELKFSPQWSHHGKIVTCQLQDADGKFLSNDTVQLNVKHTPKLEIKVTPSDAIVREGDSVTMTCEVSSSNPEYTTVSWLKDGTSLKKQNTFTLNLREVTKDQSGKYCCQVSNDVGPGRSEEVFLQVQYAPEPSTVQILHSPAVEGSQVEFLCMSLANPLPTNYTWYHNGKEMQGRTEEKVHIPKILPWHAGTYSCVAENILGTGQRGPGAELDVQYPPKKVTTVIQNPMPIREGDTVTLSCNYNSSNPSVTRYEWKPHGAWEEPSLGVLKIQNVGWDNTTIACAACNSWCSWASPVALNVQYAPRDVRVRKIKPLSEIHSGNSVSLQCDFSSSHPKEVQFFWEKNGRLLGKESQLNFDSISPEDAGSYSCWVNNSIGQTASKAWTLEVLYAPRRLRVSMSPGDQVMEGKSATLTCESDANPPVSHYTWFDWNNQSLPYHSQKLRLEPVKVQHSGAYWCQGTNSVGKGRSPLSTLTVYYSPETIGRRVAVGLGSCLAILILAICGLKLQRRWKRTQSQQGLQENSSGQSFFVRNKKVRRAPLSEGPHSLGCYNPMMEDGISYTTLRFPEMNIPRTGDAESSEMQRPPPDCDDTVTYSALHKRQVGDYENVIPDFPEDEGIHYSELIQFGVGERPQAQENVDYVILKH
Sequence of mouse PD1 (mouse) (Q02242 25-288): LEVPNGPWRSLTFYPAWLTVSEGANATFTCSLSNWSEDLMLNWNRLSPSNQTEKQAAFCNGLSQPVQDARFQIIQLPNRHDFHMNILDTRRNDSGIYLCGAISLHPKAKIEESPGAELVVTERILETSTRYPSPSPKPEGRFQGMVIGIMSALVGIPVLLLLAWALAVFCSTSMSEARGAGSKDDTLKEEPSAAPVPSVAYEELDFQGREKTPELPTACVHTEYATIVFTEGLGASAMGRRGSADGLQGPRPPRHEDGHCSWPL

Q: With “CD3 bsAb (REGN10551) (bispecific antibody)” as the substance, how does the EC50, activation of T cell signaling (AP1-luciferase), run with 1 nM CD3 bsAb (human CD22 (human)) read?
A: 1.15 nM

Q: What about the EC50, activation of T cell signaling (AP1-luciferase), run with 2.5 nM CD3 bsAb (human CD22 (human)) of the same substance?
A: 0.627 nM

Q: And the EC50, activation of T cell signaling (AP1-luciferase), run with 1 nM CD3 bsAb (human CD3 (human))?
A: 1.15 nM

Q: What about the EC50, activation of T cell signaling (AP1-luciferase), run with 2.5 nM CD3 bsAb (human CD3 (human)) of the same substance?
A: 0.627 nM

Q: How did the Max % inhibition, AP1-luciferase bioassay, 2.5 nM CD3 bsAb (mouse PD1 (mouse)) turn out when REGN1932 (hIgG1 control) (antibody) was run?
A: 3%

Q: With Single arm mPDL1 WT-Fc (Fc fusion) as the substance, how does the Max MFI (mouse CD20 (mouse)) read?
A: 94.9 MFI
